Test results taken from article PMC11519345, “Structural variation of types IV-A1- and IV-A3-mediated CRISPR interference”.

Biological target: Type IV-A1 effector complex (Cas5-Cas8-Cas7-Cas6 crRNP), DinG-free;DinG (CasDinG, Csf4) type IV-A1 (Pseudomonas oleovorans;Pseudomonas …, UniProt A0A379PL53;A0A379PIR4;A0A379PIR9;A0A379PNK2;A0A379PL92 …, |)
Assay: cryo-EM; crRNA; DinG bound; PDB code not assigned in the material; EMSA: 10 mM HEPES pH 7.5, 150 mM NaCl, 1 nM DNA, on ice then 20 min RT, 6% native PAGE in TBE at 4 C; cryo-EM: 10 uM complex + 15 uM DNA in the same buffer, 10
Conditions: protein: recombinant;recombinant; tags: His6 C-terminal on Cas8;; copies: 1;1;5;1;1; bubble: non-complementary protospacer, paired 15 nt and 14+ nt ends

B1: Type IV-A1 bubbled target DNA (TS/NTS) for cryo-EM (dsDNA)
DNA 1: CGGTCGGGTCATACGTCGCGTCTCGAATCTGATGCGTAACTTGGATGCTTCGTGCGTGATG
DNA 2: CATCACGCACGAAGACCAAGTCAATGCTTAGTCTAATACCTGCGCTCGTATGACCCGACCG
binding result: binds
